US9958461B2, “Detection of protein to protein interactions” (THE GOVERNING COUNCIL OF THE UNIVERSITY OF TORONTO, priority 2013, dated 2018)

B1: Cdh1 (protein, UniProt P12830 155-882, looked up)
Cadherin-1: DWVIPPISCPENEKGPFPKNLVQIKSNKDKEGKVFYSITGQGADTPPVGVFIIERETGWLKVTEPLDRERIATYTLFSHAVSSNGNAVEDPMEILITVTDQNDNKPEFTQEVFKGSVMEGALPGTSVMEVTATDADDDVNTYNAAIAYTILSQDPELPDKNMFTINRNTGVISVVTTGLDRESFPTYTLVVQAADLQGEGLSTTATAVITVTDTNDNPPIFNPTTYKGQVPENEANVVITTLKVTDADAPNTPAWEAVYTILNDDGGQFVVTTNPVNNDGILKTAKGLDFEAKQQYILHVAVTNVVPFEVSLTTSTATVTVDVLDVNEAPIFVPPEKRVEVSEDFGVGQEITSYTAQEPDTFMEQKITYRIWRDTANWLEINPDTGAISTRAELDREDFEHVKNSTYTALIIATDNGSPVATGTGTLLLILSDVNDNAPIPEPRTIFFCERNPKPQVINIIDADLPPNTSPFTAELTHGASANWTIQYNDPTQESIILKPKMALEVGDYKINLKLMDNQNKDQVTTLEVSVCDCEGAAGVCRKAQPVEAGLQIPAILGILGGILALLILILLLLLFLRRRAVVKEPLLPPEDDTRDNVYYYDEEGGGEEDQDFDLSQLHRGLDARPEVTRNDVAPTLMSVPRYLPRPANPDEIGNFIDENLKAADTDPTAPPYDSLLVFDYEGSGSEAASLSSLNSSESDKDQDYDYLNEWGNRFKKLADMYGGGEDD
B2: STAT5A (protein, UniProt P42229 1-794, looked up)
Signal transducer and …: MAGWIQAQQLQGDALRQMQVLYGQHFPIEVRHYLAQWIESQPWDAIDLDNPQDRAQATQLLEGLVQELQKKAEHQVGEDGFLLKIKLGHYATQLQKTYDRCPLELVRCIRHILYNEQRLVREANNCSSPAGILVDAMSQKHLQINQTFEELRLVTQDTENELKKLQQTQEYFIIQYQESLRIQAQFAQLAQLSPQERLSRETALQQKQVSLEAWLQREAQTLQQYRVELAEKHQKTLQLLRKQQTIILDDELIQWKRRQQLAGNGGPPEGSLDVLQSWCEKLAEIIWQNRQQIRRAEHLCQQLPIPGPVEEMLAEVNATITDIISALVTSTFIIEKQPPQVLKTQTKFAATVRLLVGGKLNVHMNPPQVKATIISEQQAKSLLKNENTRNECSGEILNNCCVMEYHQATGTLSAHFRNMSLKRIKRADRRGAESVTEEKFTVLFESQFSVGSNELVFQVKTLSLPVVVIVHGSQDHNATATVLWDNAFAEPGRVPFAVPDKVLWPQLCEALNMKFKAEVQSNRGLTKENLVFLAQKLFNNSSSHLEDYSGLSVSWSQFNRENLPGWNYTFWQWFDGVMEVLKKHHKPHWNDGAILGFVNKQQAHDLLINKPDGTFLLRFSDSEIGGITIAWKFDSPERNLWNLKPFTTRDFSIRSLADRLGDLSYLIYVFPDRPKDEVFSKYYTPVLAKAVDGYVKPQIKQVVPEFVNASADAGGSSATYMDQAPSPAVCPQAPYNMYPQNPDHVLDQDGEFDLDETMDVARHVEELLRRPMDSLDSRLSPPAGLFTSARGSLS
B3: APBB2 (protein, UniProt Q92870 1-758, looked up)
Amyloid beta precursor …: MSEVLPADSGVDTLAVFMASSGTTDVTNRNSPATPPNTLNLRSSHNELLNAEIKHTETKNSTPPKCRKKYALTNIQAAMGLSDPAAQPLLGNGSANIKLVKNGENQLRKAAEQGQQDPNKNLSPTAVINITSEKLEGKEPHPQDSSSCEILPSQPRRTKSFLNYYADLETSARELEQNRGNHHGTAEEKSQPVQGQASTIIGNGDLLLQKPNRPQSSPEDGQVATVSSSPETKKDHPKTGAKTDCALHRIQNLAPSDEESSWTTLSQDSASPSSPDETDIWSDHSFQTDPDLPPGWKRVSDIAGTYYWHIPTGTTQWERPVSIPADLQGSRKGSLSSVTPSPTPENEKQPWSDFAVLNGGKINSDIWKDLHAATVNPDPSLKEFEGATLRYASLKLRNAPHPDDDDSCSINSDPEAKCFAVRSLGWVEMAEEDLAPGKSSVAVNNCIRQLSYCKNDIRDTVGIWGEGKDMYLILENDMLSLVDPMDRSVLHSQPIVSIRVWGVGRDNGRDFAYVARDKDTRILKCHVFRCDTPAKAIATSLHEICSKIMAERKNAKALACSSLQERANVNLDVPLQVDFPTPKTELVQKFHVQYLGMLPVDKPVGMDILNSAIENLMTSSNKEDWLSVNMNVADATVTVISEKNEEEVLVECRVRFLSFMGVGKDVHTFAFIMDTGNQRFECHVFWCEPNAGNVSEAVQAACMLRYQKCLVARPPSQKVRPPPPPADSVTRRVTTNVKRGVLSLIDTLKQKRPVTEMP
B4: TAB1 (protein, UniProt Q15750 1-504, looked up)
TGF-beta-activated kinase 1 …: MAAQRRSLLQSEQQPSWTDDLPLCHLSGVGSASNRSYSADGKGTESHPPEDSWLKFRSENNCFLYGVFNGYDGNRVTNFVAQRLSAELLLGQLNAEHAEADVRRVLLQAFDVVERSFLESIDDALAEKASLQSQLPEGVPQHQLPPQYQKILERLKTLEREISGGAMAVVAVLLNNKLYVANVGTNRALLCKSTVDGLQVTQLNVDHTTENEDELFRLSQLGLDAGKIKQVGIICGQESTRRIGDYKVKYGYTDIDLLSAAKSKPIIAEPEIHGAQPLDGVTGFLVLMSEGLYKALEAAHGPGQANQEIAAMIDTEFAKQTSLDAVAQAVVDRVKRIHSDTFASGGERARFCPRHEDMTLLVRNFGYPLGEMSQPTPSPAPAAGGRVYPVSVPYSSAQSTSKTSVTLSLVMPSQGQMVNGAHSASTLDEATPTLTNQSPTLTLQSTNTHTQSSSSSSDGGLFRSRPAHSLPPGEDGRVEPYVDFAEFYRLWSVDHGEQSVVTAP
B5: ZAP70 (protein, UniProt P43403 1-619, looked up)
Tyrosine-protein kinase ZAP-70: MPDPAAHLPFFYGSISRAEAEEHLKLAGMADGLFLLRQCLRSLGGYVLSLVHDVRFHHFPIERQLNGTYAIAGGKAHCGPAELCEFYSRDPDGLPCNLRKPCNRPSGLEPQPGVFDCLRDAMVRDYVRQTWKLEGEALEQAIISQAPQVEKLIATTAHERMPWYHSSLTREEAERKLYSGAQTDGKFLLRPRKEQGTYALSLIYGKTVYHYLISQDKAGKYCIPEGTKFDTLWQLVEYLKLKADGLIYCLKEACPNSSASNASGAAAPTLPAHPSTLTHPQRRIDTLNSDGYTPEPARITSPDKPRPMPMDTSVYESPYSDPEELKDKKLFLKRDNLLIADIELGCGNFGSVRQGVYRMRKKQIDVAIKVLKQGTEKADTEEMMREAQIMHQLDNPYIVRLIGVCQAEALMLVMEMAGGGPLHKFLVGKREEIPVSNVAELLHQVSMGMKYLEEKNFVHRDLAARNVLLVNRHYAKISDFGLSKALGADDSYYTARSAGKWPLKWYAPECINFRKFSSRSDVWSYGVTMWEALSYGQKPYKKMKGPEVMAFIEQGKRMECPPECPPELYALMSDCWIYKWEDRPDFLTVEQRMRACYYSLASKVEGPPGSTQKAEAACA
B6: ABL2 (protein, UniProt P42684 2-1182, looked up)
Tyrosine-protein kinase ABL2: GQQVGRVGEAPGLQQPQPRGIRGSSAARPSGRRRDPAGRTTETGFNIFTQHDHFASCVEDGFEGDKTGGSSPEALHRPYGCDVEPQALNEAIRWSSKENLLGATESDPNLFVALYDFVASGDNTLSITKGEKLRVLGYNQNGEWSEVRSKNGQGWVPSNYITPVNSLEKHSWYHGPVSRSAAEYLLSSLINGSFLVRESESSPGQLSISLRYEGRVYHYRINTTADGKVYVTAESRFSTLAELVHHHSTVADGLVTTLHYPAPKCNKPTVYGVSPIHDKWEMERTDITMKHKLGGGQYGEVYVGVWKKYSLTVAVKTLKEDTMEVEEFLKEAAVMKEIKHPNLVQLLGVCTLEPPFYIVTEYMPYGNLLDYLRECNREEVTAVVLLYMATQISSAMEYLEKKNFIHRDLAARNCLVGENHVVKVADFGLSRLMTGDTYTAHAGAKFPIKWTAPESLAYNTFSIKSDVWAFGVLLWEIATYGMSPYPGIDLSQVYDLLEKGYRMEQPEGCPPKVYELMRACWKWSPADRPSFAETHQAFETMFHDSSISEEVAEELGRAASSSSVVPYLPRLPILPSKTRTLKKQVENKENIEGAQDATENSASSLAPGFIRGAQASSGSPALPRKQRDKSPSSLLEDAKETCFTRDRKGGFFSSFMKKRNAPTPPKRSSSFREMENQPHKKYELTGNFSSVASLQHADGFSFTPAQQEANLVPPKCYGGSFAQRNLCNDDGGGGGGSGTAGGGWSGITGFFTPRLIKKTLGLRAGKPTASDDTSKPFPRSNSTSSMSSGLPEQDRMAMTLPRNCQRSKLQLERTVSTSSQPEENVDRANDMLPKKSEESAAPSRERPKAKLLPRGATALPLRTPSGDLAITEKDPPGVGVAGVAAAPKGKEKNGGARLGMAGVPEDGEQPGWPSPAKAAPVLPTTHNHKVPVLISPTLKHTPADVQLIGTDSQGNKFKLLSEHQVTSSGDKDRPRRVKPKCAPPPPPVMRLLQHPSICSDPTEEPTALTAGQSTSETQEGGKKAALGAVPISGKAGRPVMPPPQVPLPTSSISPAKMANGTAGTKVALRKTKQAAEKISADKISKEALLECADLLSSALTEPVPNSQLVDTGHQLLDYCSGYVDCIPQTRNKFAFREAVSKLELSLQELQVSSAAAGVPGTNPVLNNLLSCVQEISDVVQR
B7: CAMLG (protein, UniProt P49069 1-296, looked up)
Guided entry of tail-anchored …: MESMAVATDGGERPGVPAGSGLSASQRRAELRRRKLLMNSEQRINRIMGFHRPGSGAEEESQTKSKQQDSDKLNSLSVPSVSKRVVLGDSVSTGTTDQQGGVAEVKGTQLGDKLDSFIKPPECSSDVNLELRQRNRGDLTADSVQRGSRHGLEQYLSRFEEAMKLRKQLISEKPSQEDGNTTEEFDSFRIFRLVGCALLALGVRAFVCKYLSIFAPFLTLQLAYMGLYKYFPKSEKKIKTTVLTAALLLSGIPAEVINRSMDTYSKMGEVFTDLCVYFFTFIFCHELLDYWGSEVP

molecular target: T1, EGFR-L858R (Homo sapiens, UniProt P00533, L858R); experiment: MaMTH EGFR-interactor screen, lentiviral preys against EGFR-L858R bait (interaction score); type: cell-based; settings: MaMTH interaction score of prey with EGFR-L858R bait
T1 construct: with the advantage of testing full-length integral membrane proteins; (GGGGS)2 linker-Cub (human ubiquitin aa 35-76)-GAL4(1-147)-mNFkB(364-550) (C); expressed in transfected cells
Method: (§1) After lentivirus harvest, target cells (stable 5×GAL4UAS-luciferase reporter-HEK293T cells) were infected at a multiplicity of infection (MOI) of around 0.3-0.4 to ensure single copy integration per cell. Cells were selected in puromycin for at least 48 h and transfected with either EGFR-wildtype or EGFR-L858R baits in triplicates. 24 h after transfection, cells were lysed and luciferase assays performed. On each set of interaction assays, various negative controls were included. To calculate a MaMTH-interaction scores, negative controls were averaged and the fold-change of luciferase activity compared to the averaged controls was calculated and defined as the interaction score.
(§2) Each set of experiments contains a defined set of negative controls in at least three replicates. Negative controls were chosen as such that there is a range of controls showing high-background luciferase activity (normally cytosolic proteins: Fabp5, Pex19) as well as medium-background luciferase activity (membrane-bound interactors: Pex7, GABBR2). Negative controls were averaged and the fold-change of luciferase activity was calculated. Using this method, we have a stringent cut-off and chose an interaction score >1 to be interacting proteins.
(§3) Our cut-off of 1 is based on fold-change difference in luciferase activity over averaged negative controls. Negative controls include cytosolic preys (which tend to promiscuously bind to many proteins), plasma membrane- and peroxisomal-prey proteins. In general, we chose stringent conditions by testing preys that tend to have high luciferase background with any bait tested, in order to generate high-confidence interaction data. […] Phosphorylated tyrosine residues on the receptor are typically docking sites for downstream cytoplasmic targets and recognized through SH2 or PTB domains^43.

| Molecule | EGFR-L858R mean |
| --- | --- |
| B1 | 2.27 |
| B2 | 3.26 |
| B3 | 2.92 |
| B4 | 5.95 |
| B5 | 16.20 |
| B6 | 4.47 |
| B7 | 7.17 |

molecular target: T2, EGFR-Wt (Homo sapiens, UniProt P00533); experiment: MaMTH EGFR-interactor screen, lentiviral preys against EGFR-wildtype bait (interaction score); type: cell-based; settings: MaMTH interaction score of prey with EGFR-Wt bait, mean
T2 construct: with the advantage of testing full-length integral membrane proteins; (GGGGS)2 linker-Cub (human ubiquitin aa 35-76)-GAL4(1-147)-mNFkB(364-550) (C); expressed in transfected cells
Method: as §1, §2, §3

| Molecule | EGFR-Wt mean |
| --- | --- |
| B1 | 2.14 |
| B2 | 3.12 |
| B3 | 3.05 |
| B4 | 5.84 |
| B5 | 16.92 |
| B6 | 4.63 |
| B7 | 7.16 |

tested on: EGFR-Wt; experiment: as above; type: cell-based, human; settings: ratio of EGFR-Wt mean to EGFR-L858R mean interaction score
Method: as §1, §2, §3

| Molecule | Wt/L858R |
| --- | --- |
| B1 | 0.94 |
| B2 | 0.96 |
| B3 | 1.05 |
| B4 | 0.98 |
| B5 | 1.04 |
| B6 | 1.04 |
| B7 | 1.00 |
